Laboratory results taken from patent US20190309079A1.
One block for each substance: values may come before it.

Columns and labels:
[1] = biological target: full length human LEPR (amino acids 1-1165 of P48357, Isoform B) on cells (human) (UniProt P48357); experiment: FACS, HEK293/Stat3-luc/hLEPR-FL, no Leptin
[2] = biological target: extracellular domain of human LEPR (amino acids 22-839 of P48357, Isoform B) with N-terminal myc-myc tag, GPI-anchored on HEK293 cells (HEK293/hLEPR-GPI) (human) (UniProt P48357); experiment: FACS, HEK293/hLEPR-GPI, 1 uM Leptin
[3] = biological target: extracellular domain of human LEPR (amino acids 22-839 of P48357, Isoform B) with N-terminal myc-myc tag, GPI-anchored on HEK293 cells (HEK293/hLEPR-GPI) (human) (UniProt P48357); experiment: FACS, HEK293/hLEPR-GPI, no Leptin
[4] = biological target: extracellular domain of human LEPR (amino acids 22-839 of P48357, Isoform B) with N-terminal myc-myc tag, GPI-anchored on HEK293 cells (HEK293/hLEPR-GPI) (human) (UniProt P48357); experiment: FACS, HEK293/hLEPR-GPI, no added Leptin
[5] = biological target: extracellular domain portion of LEPR protein expressed with a C-terminal human Fc tag (hLEPR.hFc) (human); experiment: blocking ELISA, hLeptin coated
[6] = biological target: extracellular domain of human LEPR (amino acids 22-839 of P48357, Isoform B) with N-terminal myc-myc tag, GPI-anchored on HEK293 cells (HEK293/hLEPR-GPI) (human) (UniProt P48357); experiment: FACS, 10 nM Ab, HEK293/hLEPR-GPI, 1 uM Leptin
[7] = biological target: human LEPR CRH1 (D1)-MMH (human) (UniProt P48357); experiment: Luminex, myc-captured protein on beads
[8] = biological target: extracellular domain of human LEPR (amino acids 22-839 of P48357, Isoform B) with N-terminal myc-myc tag, GPI-anchored on HEK293 cells (HEK293/hLEPR-GPI) (human) (UniProt P48357); experiment: FACS, 10 nM Ab, HEK293/hLEPR-GPI, no added Leptin
[9] = biological target: Macaca fascicularis LEPR extracellular domain expressed with a C-terminal myc-myc-hexahistidine tag (mfLEPR.mmh) (Macaca fascicularis); experiment: SPR, captured mAb, 37C
[10] = biological target: human LEPR extracellular domain expressed with a C-terminal myc-myc-hexahistidine tag (hLEPR.mmh) (human) (UniProt P48357); experiment: SPR, captured mAb, 37C
[11] = biological target: human LEPR extracellular domain expressed with a C-terminal mouse IgG2a Fc tag (hLEPR.mFc) (human); experiment: SPR, captured mAb, 37C
[12] = biological target: extracellular domain of human LEPR (amino acids 22-839 of P48357, Isoform B) with N-terminal myc-myc tag, GPI-anchored on HEK293 cells (HEK293/hLEPR-GPI) (human) (UniProt P48357); experiment: FACS, 70 nM Ab, HEK293/hLEPR-GPI, no Leptin
[13] = biological target: full length human LEPR (amino acids 1-1165 of P48357, Isoform B) on cells (human) (UniProt P48357); experiment: FACS, 70 nM Ab, HEK293/Stat3-luc/hLEPR-FL, no Leptin
[14] = biological target: Macaca fascicularis LEPR extracellular domain expressed with a C-terminal myc-myc-hexahistidine tag (mfLEPR.mmh) (Macaca fascicularis); experiment: SPR, captured mAb, 25C
[15] = biological target: human LEPR extracellular domain expressed with a C-terminal myc-myc-hexahistidine tag (hLEPR.mmh) (human) (UniProt P48357); experiment: SPR, captured mAb, 25C
[16] = biological target: human LEPR extracellular domain expressed with a C-terminal mouse IgG2a Fc tag (hLEPR.mFc) (human); experiment: SPR, captured mAb, 25C

Chain of extracellular domain portion of LEPR protein expressed with a C-terminal human Fc tag (hLEPR.hFc) (human) (chain, as listed by the source limits assumed): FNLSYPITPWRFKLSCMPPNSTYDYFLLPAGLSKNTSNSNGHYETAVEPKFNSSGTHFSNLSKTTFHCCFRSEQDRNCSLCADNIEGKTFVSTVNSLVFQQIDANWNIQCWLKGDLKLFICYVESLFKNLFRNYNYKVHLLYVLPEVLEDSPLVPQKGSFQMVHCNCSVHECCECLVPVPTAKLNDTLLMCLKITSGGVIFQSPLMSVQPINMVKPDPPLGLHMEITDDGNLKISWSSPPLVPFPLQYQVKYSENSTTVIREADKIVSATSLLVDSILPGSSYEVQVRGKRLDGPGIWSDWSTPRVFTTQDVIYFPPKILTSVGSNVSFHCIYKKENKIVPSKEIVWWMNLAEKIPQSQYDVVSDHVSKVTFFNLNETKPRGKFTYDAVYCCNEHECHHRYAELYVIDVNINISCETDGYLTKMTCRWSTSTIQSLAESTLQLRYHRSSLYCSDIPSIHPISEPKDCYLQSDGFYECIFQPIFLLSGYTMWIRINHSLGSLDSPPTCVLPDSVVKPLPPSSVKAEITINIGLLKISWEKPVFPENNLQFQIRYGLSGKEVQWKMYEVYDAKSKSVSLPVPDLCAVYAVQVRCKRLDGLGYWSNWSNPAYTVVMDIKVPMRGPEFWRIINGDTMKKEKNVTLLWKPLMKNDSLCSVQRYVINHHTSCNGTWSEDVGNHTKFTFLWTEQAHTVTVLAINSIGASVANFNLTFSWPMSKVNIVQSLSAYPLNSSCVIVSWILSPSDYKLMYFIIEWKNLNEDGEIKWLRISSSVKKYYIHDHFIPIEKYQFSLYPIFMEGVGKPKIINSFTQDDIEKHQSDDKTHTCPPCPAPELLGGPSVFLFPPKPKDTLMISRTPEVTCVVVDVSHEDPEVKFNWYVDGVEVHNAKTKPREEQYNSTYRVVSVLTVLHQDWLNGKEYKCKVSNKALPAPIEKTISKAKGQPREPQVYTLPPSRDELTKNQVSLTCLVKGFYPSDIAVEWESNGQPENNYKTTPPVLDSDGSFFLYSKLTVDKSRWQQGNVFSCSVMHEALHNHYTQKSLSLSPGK
Chain of extracellular domain of human LEPR (amino acids 22-839 of P48357, Isoform B) with N-terminal myc-myc tag, GPI-anchored on HEK293 cells (HEK293/hLEPR-GPI) (human) (P48357 22-839, one chain of several): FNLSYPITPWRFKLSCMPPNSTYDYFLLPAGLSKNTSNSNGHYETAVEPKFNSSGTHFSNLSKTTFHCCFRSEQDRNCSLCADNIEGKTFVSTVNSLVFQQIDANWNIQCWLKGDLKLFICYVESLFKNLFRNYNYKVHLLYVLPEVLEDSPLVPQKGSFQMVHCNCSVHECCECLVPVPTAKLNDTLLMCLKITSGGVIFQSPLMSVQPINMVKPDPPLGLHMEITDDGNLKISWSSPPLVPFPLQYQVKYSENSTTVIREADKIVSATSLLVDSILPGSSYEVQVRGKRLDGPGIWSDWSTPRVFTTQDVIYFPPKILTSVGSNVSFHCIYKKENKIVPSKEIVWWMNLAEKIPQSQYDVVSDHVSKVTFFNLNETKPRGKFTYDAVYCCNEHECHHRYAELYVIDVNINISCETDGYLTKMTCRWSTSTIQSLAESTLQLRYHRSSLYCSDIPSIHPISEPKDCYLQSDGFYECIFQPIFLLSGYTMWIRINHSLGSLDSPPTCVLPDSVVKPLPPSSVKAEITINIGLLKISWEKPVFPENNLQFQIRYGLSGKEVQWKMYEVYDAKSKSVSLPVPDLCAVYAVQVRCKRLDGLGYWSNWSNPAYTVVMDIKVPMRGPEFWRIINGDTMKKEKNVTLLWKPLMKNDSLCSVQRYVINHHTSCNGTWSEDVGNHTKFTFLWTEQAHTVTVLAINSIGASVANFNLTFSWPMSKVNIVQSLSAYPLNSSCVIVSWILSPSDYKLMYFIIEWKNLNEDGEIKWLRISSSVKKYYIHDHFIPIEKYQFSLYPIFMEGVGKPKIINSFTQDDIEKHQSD
Chain of human LEPR extracellular domain expressed with a C-terminal myc-myc-hexahistidine tag (hLEPR.mmh) (human) (P48357 other isoform, or with tags, fused parts or gaps): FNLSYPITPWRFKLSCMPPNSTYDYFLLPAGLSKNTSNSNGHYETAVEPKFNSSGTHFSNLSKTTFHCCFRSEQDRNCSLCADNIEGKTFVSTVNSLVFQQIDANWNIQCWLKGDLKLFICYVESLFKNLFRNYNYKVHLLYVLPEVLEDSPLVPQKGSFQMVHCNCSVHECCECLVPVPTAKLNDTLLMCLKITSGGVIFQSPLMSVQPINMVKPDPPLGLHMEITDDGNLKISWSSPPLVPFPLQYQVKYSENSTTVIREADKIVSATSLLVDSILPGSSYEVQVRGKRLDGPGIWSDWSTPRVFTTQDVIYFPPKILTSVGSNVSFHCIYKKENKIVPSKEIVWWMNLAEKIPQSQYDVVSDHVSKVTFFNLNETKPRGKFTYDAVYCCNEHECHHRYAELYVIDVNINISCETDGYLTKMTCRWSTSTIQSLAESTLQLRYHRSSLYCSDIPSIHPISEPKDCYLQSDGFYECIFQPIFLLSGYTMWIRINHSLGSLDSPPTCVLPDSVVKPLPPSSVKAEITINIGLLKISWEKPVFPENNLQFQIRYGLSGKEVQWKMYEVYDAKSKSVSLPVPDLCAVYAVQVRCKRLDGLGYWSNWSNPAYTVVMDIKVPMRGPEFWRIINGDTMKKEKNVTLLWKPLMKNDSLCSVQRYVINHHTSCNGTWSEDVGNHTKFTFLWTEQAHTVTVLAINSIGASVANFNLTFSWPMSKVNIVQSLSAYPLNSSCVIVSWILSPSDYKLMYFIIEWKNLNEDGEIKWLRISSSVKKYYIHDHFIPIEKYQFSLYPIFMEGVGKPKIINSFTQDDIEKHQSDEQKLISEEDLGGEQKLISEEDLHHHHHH
Chain of Macaca fascicularis LEPR extracellular domain expressed with a C-terminal myc-myc-hexahistidine tag (mfLEPR.mmh) (Macaca fascicularis) (Q9MYL0 other isoform, or with tags, fused parts or gaps): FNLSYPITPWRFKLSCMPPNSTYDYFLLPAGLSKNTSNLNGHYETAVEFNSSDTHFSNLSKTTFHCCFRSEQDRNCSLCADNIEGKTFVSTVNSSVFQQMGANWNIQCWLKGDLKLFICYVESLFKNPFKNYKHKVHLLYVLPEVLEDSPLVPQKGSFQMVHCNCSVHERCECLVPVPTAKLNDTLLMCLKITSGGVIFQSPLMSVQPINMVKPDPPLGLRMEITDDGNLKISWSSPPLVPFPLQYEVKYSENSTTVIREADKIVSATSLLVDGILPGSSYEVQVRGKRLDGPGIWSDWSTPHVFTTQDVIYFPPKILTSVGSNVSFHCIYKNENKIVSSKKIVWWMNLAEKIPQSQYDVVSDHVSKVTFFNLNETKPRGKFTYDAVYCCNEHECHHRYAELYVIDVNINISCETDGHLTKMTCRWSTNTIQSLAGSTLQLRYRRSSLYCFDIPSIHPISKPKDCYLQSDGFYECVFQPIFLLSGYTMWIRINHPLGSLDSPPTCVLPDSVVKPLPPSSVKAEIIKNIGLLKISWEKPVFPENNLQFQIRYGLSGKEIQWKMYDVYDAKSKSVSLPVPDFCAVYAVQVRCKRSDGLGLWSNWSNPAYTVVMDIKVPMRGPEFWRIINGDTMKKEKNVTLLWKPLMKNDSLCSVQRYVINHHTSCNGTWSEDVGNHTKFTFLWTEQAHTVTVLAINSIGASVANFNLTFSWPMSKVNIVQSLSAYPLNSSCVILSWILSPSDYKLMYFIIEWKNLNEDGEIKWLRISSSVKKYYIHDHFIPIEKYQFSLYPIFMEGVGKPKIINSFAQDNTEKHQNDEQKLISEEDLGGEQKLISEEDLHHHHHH
Chain of full length human LEPR (amino acids 1-1165 of P48357, Isoform B) on cells (human) (P48357 22-1165): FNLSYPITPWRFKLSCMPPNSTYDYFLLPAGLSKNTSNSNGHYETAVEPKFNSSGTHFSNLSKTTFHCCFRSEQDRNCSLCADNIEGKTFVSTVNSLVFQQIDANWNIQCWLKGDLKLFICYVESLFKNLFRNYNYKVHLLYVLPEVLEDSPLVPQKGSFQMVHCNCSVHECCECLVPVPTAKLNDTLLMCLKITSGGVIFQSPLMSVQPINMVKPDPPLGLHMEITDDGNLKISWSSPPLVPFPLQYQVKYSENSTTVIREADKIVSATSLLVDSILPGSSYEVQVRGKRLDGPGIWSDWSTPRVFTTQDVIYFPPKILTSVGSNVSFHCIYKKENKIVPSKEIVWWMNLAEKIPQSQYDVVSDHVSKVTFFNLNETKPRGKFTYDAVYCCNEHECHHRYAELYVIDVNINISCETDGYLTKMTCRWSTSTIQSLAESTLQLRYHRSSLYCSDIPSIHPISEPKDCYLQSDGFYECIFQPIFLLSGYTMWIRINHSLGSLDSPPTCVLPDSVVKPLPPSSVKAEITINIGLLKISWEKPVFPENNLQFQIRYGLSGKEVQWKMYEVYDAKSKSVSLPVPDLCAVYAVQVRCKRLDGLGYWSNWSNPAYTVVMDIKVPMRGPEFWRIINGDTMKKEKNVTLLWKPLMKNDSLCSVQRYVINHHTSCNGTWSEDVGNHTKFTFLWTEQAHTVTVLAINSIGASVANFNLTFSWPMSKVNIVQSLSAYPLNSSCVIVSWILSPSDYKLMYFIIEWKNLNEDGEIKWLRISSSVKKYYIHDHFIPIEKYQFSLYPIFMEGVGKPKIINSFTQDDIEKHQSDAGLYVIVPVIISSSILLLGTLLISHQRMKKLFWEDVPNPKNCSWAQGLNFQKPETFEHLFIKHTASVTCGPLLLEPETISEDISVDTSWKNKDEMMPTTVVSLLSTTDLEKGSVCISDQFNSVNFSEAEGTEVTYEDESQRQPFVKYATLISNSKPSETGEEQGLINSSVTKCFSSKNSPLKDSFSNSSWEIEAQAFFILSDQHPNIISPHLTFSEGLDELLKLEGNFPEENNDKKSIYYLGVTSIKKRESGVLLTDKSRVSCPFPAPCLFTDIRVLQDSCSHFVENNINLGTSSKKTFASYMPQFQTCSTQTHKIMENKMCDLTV
Chain of human LEPR CRH1 (D1)-MMH (human) (P48357 22-229 limits assumed): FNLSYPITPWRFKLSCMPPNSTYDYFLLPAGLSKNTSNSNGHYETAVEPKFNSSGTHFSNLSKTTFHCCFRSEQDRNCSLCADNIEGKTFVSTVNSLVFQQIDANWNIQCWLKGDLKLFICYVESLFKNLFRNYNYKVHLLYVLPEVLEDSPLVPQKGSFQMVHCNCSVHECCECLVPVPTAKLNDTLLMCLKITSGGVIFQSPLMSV

Binding Ratio (normalized to unstained) [1]: 1 fold
Binding Ratio (normalized to unstained) [2]: 3 fold
Binding Ratio (normalized to unstained) [3]: 1 fold
Binding Ratio (normalized to unstained) [4]: 3 fold
Substance: Alexa Fluor-647 conjugated secondary antibody (Jackson ImmunoResearch Laboratories Inc., #109-547-003), alone

500 nM Ab Blocking of 10 nM hLEPR.hFc Binding to hLeptin (% blockade) [5]: 99%
Binding Ratio (normalized to unstained) [6]: 112 fold
Luminex MFI [7]: 14 MFI
Binding Ratio (normalized to unstained) [8]: 2350 fold
Substance: Comparator mAb (Fab9F8 described in Fazeli et al. 2006 and Carpenter et al. 2012) (antibody)

500 nM Ab Blocking of 10 nM hLEPR.hFc Binding to hLeptin (% blockade) [5]: -3%
100 nM mfLEPR.MMH Bound (RU) [9]: 1 RU
100 nM hLEPR-MMH Bound (RU) [10]: 6 RU
100 nM hLEPR-mFc Bound (RU) [11]: 1 RU
Binding Ratio (normalized to unstained) [6]: 4 fold
Binding Ratio (normalized to unstained) [12]: 2 fold
Binding Ratio (normalized to unstained) [13]: 2 fold
Binding Ratio (normalized to unstained) [8]: 6 fold
100 nM mfLEP.MMH Bound (RU) [14]: 0 RU
100 nM hLEPR-mmH Bound (RU) [15]: 4 RU
100 nM hLEPR-mFc Bound (RU) [16]: -2 RU
Substance: Isotype Control monoclonal antibody

500 nM Ab Blocking of 10 nM hLEPR.hFc Binding to hLeptin (% blockade) [5]: 32%
Substance: Mouse IgG2a Isotype control (antibody)
